We go through 125 sequences from the supplement of paper PMC9112550, “Optimization of the antimicrobial peptide Bac7 by deep mutational scanning” (BMC Biology, 2022).
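Also: peptides expressed intracellularly from a pBAD plasmid library in pooled LB shake-flask culture, induced with 0.3% L-arabinose, DNA abundance read by NGS, three biological replicates, DESeq2 with apeglm shrinkage.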

This data set deals with Escherichia coli TOP10. The data set is described as follows: shrunken log2 fold change of peptide-encoding DNA abundance (4.5 h post-induction vs induction); higher = less antimicrobial activity (less host growth inhibition). Particulars: time post-induction: 4.5 h; library: site-saturation at positions 5, 18, 19, 20.
In the case of RRIRYRPPRLPRPRPRPLMQPRP, the “shrunken log2 fold change” value was -0.283.
For the sequence RRIRTRPPRLPRPRPRPANFPRP, the “shrunken log2 fold change” value was -0.234.
The result for RRIRKRPPRLPRPRPRPQCLPRP reads 0.131.
With RRIRPRPPRLPRPRPRPCFAPRP the figure was 0.0019; with RRIRARPPRLPRPRPRPHIYPRP, -0.805; with RRIRCRPPRLPRPRPRPMDGPRP, 0.013.
With RRIRTRPPRLPRPRPRPYMYPRP the figure was -0.767.
In the case of RRIRTRPPRLPRPRPRPKLTPRP, the “shrunken log2 fold change” value turned out to be 0.0272.
The result for RRIRWRPPRLPRPRPRPYLQPRP reads -0.113; that for RRIRLRPPRLPRPRPRPAYTPRP, -0.203.
With RRIRTRPPRLPRPRPRPEMLPRP the figure was 0.0362; with RRIRVRPPRLPRPRPRPRQIPRP, 0.0436.
Take RRIRIRPPRLPRPRPRPQSKPRP: the “shrunken log2 fold change” value is -0.493.
The result for RRIRTRPPRLPRPRPRPATCPRP reads 2.77; that for RRIRDRPPRLPRPRPRPNRTPRP, -0.477.
With RRIRYRPPRLPRPRPRPHKGPRP the figure was -0.29.
With RRIRCRPPRLPRPRPRPRAWPRP, the “shrunken log2 fold change” value amounted to 0.24.
With RRIRSRPPRLPRPRPRPLAIPRP the figure was -0.0883.
The result for RRIRIRPPRLPRPRPRPHTQPRP reads -0.124; that for RRIRCRPPRLPRPRPRPIMHPRP, -0.135; that for RRIRSRPPRLPRPRPRPKRIPRP, -0.275.
The result for RRIRTRPPRLPRPRPRPMTTPRP reads 0.000642; that for RRIRGRPPRLPRPRPRPKTKPRP, 0.0509; that for RRIRQRPPRLPRPRPRPVHTPRP, -0.168.
For RRIRHRPPRLPRPRPRPYAPPRP, the “shrunken log2 fold change” value was -0.737.
As to RRIRWRPPRLPRPRPRPSNKPRP, the “shrunken log2 fold change” value was -0.403.
The result for RRIRSRPPRLPRPRPRPYFQPRP reads -0.951; that for RRIRARPPRLPRPRPRPNMNPRP, -0.212; that for RRIRARPPRLPRPRPRPYVEPRP, -0.162.
In the case of RRIRTRPPRLPRPRPRPTIEPRP, the “shrunken log2 fold change” value was -0.297.
The result for RRIRERPPRLPRPRPRPSFWPRP reads 0.132; that for RRIRMRPPRLPRPRPRPLITPRP, 0.0495; that for RRIRKRPPRLPRPRPRPDYFPRP, 0.0333.
With RRIRDRPPRLPRPRPRPHWDPRP the figure was -0.0788; with RRIRWRPPRLPRPRPRPTEGPRP, 0.0765.
The result for RRIRFRPPRLPRPRPRPCSWPRP reads -0.349; that for RRIRWRPPRLPRPRPRPWSQPRP, 0.298; that for RRIRHRPPRLPRPRPRPRMKPRP, -0.223.
As to RRIRRRPPRLPRPRPRPRIMPRP, the “shrunken log2 fold change” value worked out at 0.0517.
Regarding RRIRERPPRLPRPRPRPRCHPRP, the “shrunken log2 fold change” value was -0.464.
With RRIRSRPPRLPRPRPRPSNMPRP the figure was -1.05; with RRIRHRPPRLPRPRPRPSELPRP, 0.0169; with RRIRWRPPRLPRPRPRPQVMPRP, 0.209.
With RRIRDRPPRLPRPRPRPQHGPRP the figure was 0.587; with RRIRERPPRLPRPRPRPIPEPRP, -0.882.
The result for RRIRERPPRLPRPRPRPIFPPRP reads -0.367.
On to RRIRLRPPRLPRPRPRPKMIPRP, for which the “shrunken log2 fold change” value was -0.378.
Take RRIRHRPPRLPRPRPRPRIAPRP: the “shrunken log2 fold change” value was found to be 0.0721.
Consider RRIRGRPPRLPRPRPRPQTCPRP, for which the “shrunken log2 fold change” value was determined as 0.403.
RRIRWRPPRLPRPRPRPCFSPRP: the “shrunken log2 fold change” value was -0.176.
With RRIRERPPRLPRPRPRPHFHPRP the figure was -0.597; with RRIRRRPPRLPRPRPRPFGTPRP, 0.0468.
With RRIRWRPPRLPRPRPRPNKWPRP the figure was -0.0175.
The result for RRIRLRPPRLPRPRPRPYLHPRP reads -0.447; that for RRIRHRPPRLPRPRPRPVDPPRP, -0.0989.
As for RRIRNRPPRLPRPRPRPHNRPRP, the “shrunken log2 fold change” value came to 0.0237.
Take RRIRTRPPRLPRPRPRPYMHPRP: the “shrunken log2 fold change” value is -0.685.
The result for RRIRDRPPRLPRPRPRPSAHPRP reads 0.127; that for RRIRFRPPRLPRPRPRPWIDPRP, -0.0232.
Regarding RRIRCRPPRLPRPRPRPVLGPRP, the “shrunken log2 fold change” value came to 0.0642.
The result for RRIRQRPPRLPRPRPRPNHYPRP reads -0.36; that for RRIRNRPPRLPRPRPRPAPSPRP, 0.271.
The result for RRIRKRPPRLPRPRPRPHCYPRP reads -0.605.
The result for RRIRPRPPRLPRPRPRPKQSPRP reads 0.142; that for RRIRKRPPRLPRPRPRPSYWPRP, -0.144; that for RRIRLRPPRLPRPRPRPEPIPRP, 0.0321.
As to RRIRRRPPRLPRPRPRPTYFPRP, the “shrunken log2 fold change” value was 0.0897.
With RRIRGRPPRLPRPRPRPVNLPRP the figure was -0.152; with RRIRDRPPRLPRPRPRPFNTPRP, -0.686.
With RRIRARPPRLPRPRPRPGECPRP the figure was 0.298; with RRIRDRPPRLPRPRPRPTKQPRP, 0.188; with RRIRARPPRLPRPRPRPKITPRP, -0.0367.
In the case of RRIRIRPPRLPRPRPRPHGGPRP, the “shrunken log2 fold change” value is -0.0479.
With RRIRNRPPRLPRPRPRPHKVPRP the figure was -0.513.
The result for RRIRMRPPRLPRPRPRPVQLPRP reads 0.0278.
Take RRIRDRPPRLPRPRPRPYWDPRP: the “shrunken log2 fold change” value is -0.766.
RRIRFRPPRLPRPRPRPPVKPRP: the “shrunken log2 fold change” value was -0.00563.
The result for RRIRVRPPRLPRPRPRPSSKPRP reads -0.0737; that for RRIRERPPRLPRPRPRPAAGPRP, 0.315.
Regarding RRIRQRPPRLPRPRPRPDNNPRP, the “shrunken log2 fold change” value is -1.14.
The result for RRIRFRPPRLPRPRPRPDFLPRP reads -0.453; that for RRIRPRPPRLPRPRPRPTKHPRP, -0.131.
RRIRDRPPRLPRPRPRPFFSPRP: the “shrunken log2 fold change” value was 0.115.
The result for RRIRYRPPRLPRPRPRPTMSPRP reads -0.0772; that for RRIRIRPPRLPRPRPRPCIWPRP, -0.278.
With RRIRDRPPRLPRPRPRPNKWPRP the figure was -0.0744.
As to RRIRVRPPRLPRPRPRPDFCPRP, the “shrunken log2 fold change” value worked out at 0.183.
The result for RRIRDRPPRLPRPRPRPSFDPRP reads -0.0842; that for RRIRWRPPRLPRPRPRPPDQPRP, 0.694.
Turning to RRIRCRPPRLPRPRPRPHRFPRP, the “shrunken log2 fold change” value is -0.0713.
With RRIRARPPRLPRPRPRPCMPPRP, the “shrunken log2 fold change” value was -0.0783.
For RRIRHRPPRLPRPRPRPIKSPRP, the “shrunken log2 fold change” value is -0.0206.
With RRIRGRPPRLPRPRPRPVCVPRP the figure was 0.891; with RRIRMRPPRLPRPRPRPGNVPRP, -0.0105; with RRIRPRPPRLPRPRPRPYEEPRP, -0.214.
With RRIRGRPPRLPRPRPRPPRHPRP the figure was 0.818; with RRIRVRPPRLPRPRPRPSGAPRP, 0.197.
With RRIRHRPPRLPRPRPRPGNLPRP the figure was -0.0177; with RRIRNRPPRLPRPRPRPKNAPRP, -0.0561.
Regarding RRIRIRPPRLPRPRPRPAKWPRP, the “shrunken log2 fold change” value came to 0.109.
As for RRIRPRPPRLPRPRPRPATRPRP, the “shrunken log2 fold change” value was 0.442.
The result for RRIRWRPPRLPRPRPRPFEYPRP reads -0.331; that for RRIRMRPPRLPRPRPRPTTVPRP, 0.376.
With RRIRCRPPRLPRPRPRPHFTPRP the figure was -0.677; with RRIRWRPPRLPRPRPRPRWKPRP, -0.0506; with RRIRMRPPRLPRPRPRPTASPRP, 1.
With RRIRARPPRLPRPRPRPTSPPRP the figure was 0.292; with RRIRWRPPRLPRPRPRPMACPRP, -0.0978; with RRIRVRPPRLPRPRPRPCAYPRP, -0.336.
Consider RRIRPRPPRLPRPRPRPIFMPRP, for which the “shrunken log2 fold change” value is -0.0036.
Turning to RRIRKRPPRLPRPRPRPECEPRP, the “shrunken log2 fold change” value was determined as 0.0869.
With RRIRIRPPRLPRPRPRPCWYPRP the figure was -0.461.
The result for RRIRRRPPRLPRPRPRPPHYPRP reads 1.15; that for RRIRQRPPRLPRPRPRPLEYPRP, -0.082.
The result for RRIRMRPPRLPRPRPRPPNVPRP reads 0.301; that for RRIRGRPPRLPRPRPRPYAVPRP, 2.53.
For RRIRLRPPRLPRPRPRPQYHPRP, the “shrunken log2 fold change” value was -0.895.
The result for RRIRWRPPRLPRPRPRPMPGPRP reads 0.0623; that for RRIRKRPPRLPRPRPRPIQLPRP, -0.0418; that for RRIRWRPPRLPRPRPRPGKNPRP, 0.13.
The result for RRIRHRPPRLPRPRPRPWQIPRP reads -0.453; that for RRIRQRPPRLPRPRPRPNCDPRP, 0.0233; that for RRIRDRPPRLPRPRPRPRFHPRP, -0.239.
For the sequence RRIRTRPPRLPRPRPRPLHDPRP, the “shrunken log2 fold change” value was -0.21.
The result for RRIRLRPPRLPRPRPRPWVWPRP reads -0.199.
